Test results published in patent US20080166364A1 (COVX TECHNOLOGY IRELAND, published 2008).
No end group written: not given here.

T1: human angiopoietin-2 protein (human, UniProt O15123 19-496)
T1 construct: bought; also called Ang-2; Ang2
T1 sequence (looked up): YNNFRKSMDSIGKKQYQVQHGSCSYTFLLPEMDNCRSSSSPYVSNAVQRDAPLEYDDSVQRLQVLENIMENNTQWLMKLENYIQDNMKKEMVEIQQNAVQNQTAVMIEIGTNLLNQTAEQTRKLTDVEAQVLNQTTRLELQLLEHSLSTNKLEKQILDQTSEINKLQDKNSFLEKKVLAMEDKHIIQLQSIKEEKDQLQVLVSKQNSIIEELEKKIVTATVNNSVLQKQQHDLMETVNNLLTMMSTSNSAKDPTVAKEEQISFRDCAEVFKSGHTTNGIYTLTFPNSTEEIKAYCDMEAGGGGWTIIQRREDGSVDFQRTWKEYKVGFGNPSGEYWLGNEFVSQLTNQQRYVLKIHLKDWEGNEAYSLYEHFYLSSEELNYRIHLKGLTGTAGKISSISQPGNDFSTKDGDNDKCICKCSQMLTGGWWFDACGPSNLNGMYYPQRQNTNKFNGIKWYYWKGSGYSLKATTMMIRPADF


Key:
[1] = molecular target: T1, human angiopoietin-2 protein; assay: reverse competitive ELISA, coated Tie-2-Fc, 0.83 nM Ang-2; peptide printed without linker, column headed P
Method: For reverse competition ELISA, human Tie-2-Fc, angiopoietin-2 protein, biotinylated anti-human Ang-2 antibody, and streptavidin HRP (R&D Systems) and TMB substrate from Pierce were used.
High-binding half-well plates were coated with Tie-2-Fc (50 ng/well) in 50 μl PBS and incubated at 4° C. overnight. Plates were washed three times with washing buffer (0.1% Tween 20, PBS, pH 7.4) and blocked with Superblock, 150 μl/well at RT for 1 hour. Plates were washed three times. Following washing, 50 μl of an Ang-2 binding peptide compound (50 nM, 5× serial dilution) in the presence of 50 ng/ml (0.83 nM) Ang-2 in Superblock were added and incubated at RT for 1 hour. Plates were washed 3 times, 50 μl of 1 μg/well biotinylated anti-Ang-2 detection antibody in Superblock was added and incubated at RT for 2 hours. Plates were washed 3 times, and 50 μl of streptavidin HRP (1:200 dilution in Superblock) was added at RT for 20 minutes. Plates were washed 3 times, and 50 μl (25 μl TMB+25 μl H₂O₂) substrate solution was added and incubated for 20-30 minutes. Color development was stopped with 25 μl of 2 M H₂SO₄. OD450 nm with a correction wavelength of 540 nm was measured.

[2] = molecular target: T1, human angiopoietin-2 protein; assay: competitive ELISA, coated Ang-2, 0.25 nM hTie-2-Fc; peptide alone
Method: For competitive ELISA, human angiopoietin-2 protein and Tie-2-Fc (R&D Systems) were reconstituted without carrier protein. Mouse anti-human Tie-2 (Pharmingen) was used as the primary antibody and goat anti-mouse-IgG1-HRP (Pierce) was used as the secondary antibody. TMB substrate from Pierce was used.
High-binding half-well plates were coated with Ang-2 (100 ng/well) in 50 μl PBS and incubated at 4° C. overnight. Plates were washed three times with washing buffer (0.1% Tween 20, PBS, pH 7.4) and blocked with Superblock (Scytek), 100 μl/well at room temperature (“RT”) for 1 hour. After removing the blocking solution, 50 μl of an Ang-2 binding peptide compound (1 uM and 5× serial dilution) in the presence of 0.25 nM hTie-2-Fc using Superblock as diluent was added and incubated at RT for 2 hours. Plates were washed 3 times with washing buffer. Then, 50 ul of 0.1 ug/ml mouse anti-human Tie-2 diluted in Superblock added and incubated at RT for 1 hour. Following incubation, 50 ul of 1:5,000 dilution of goat anti-mouse IgG-HRP in Superblock was then added and incubated at RT for one hour. After washing 3 times, 50 μl (25 μl TMB+25 μl H₂O₂) was added, and incubated for 3-5 minutes. Color development was monitored and stopped with 25 μl of 2 M H₂SO₄. OD450 nm with a correction wavelength of 540 nm was measured.

| Binder | IC50 [1] [nM] | IC50 [2] [nM] |
| --- | --- | --- |
| QKYQPLDELDKTLYDQFMLQQG-NH2 (not fully specified (N-terminus); also: N-term acyl cap, acyl not given here, not conjugated to linker or antibody) [Compound 21: Ang-2 binding peptide alone] | 36.4 | 25.8 |
| QXYQPLDELDKTLYDQFMLQQG (not fully specified; N-term acyl cap; C-term NH2 cap; AcK at 2, not conjugated to linker or antibody) [Compound 22: Ang-2 binding peptide alone] | 14.4 | – |
